Assay [1] addresses Flt1 (VEGFR-1) on Ad-N1IC-transduced HUVEC (human) (UniProt P17948). In words: cell-based or functional assay.
Assay [2] deals with Notch1 (full-length receptor expressed on cells). Briefly: cell-based or functional assay.

Sequence of Flt1 (VEGFR-1) on Ad-N1IC-transduced HUVEC (human) (P17948 27-1338): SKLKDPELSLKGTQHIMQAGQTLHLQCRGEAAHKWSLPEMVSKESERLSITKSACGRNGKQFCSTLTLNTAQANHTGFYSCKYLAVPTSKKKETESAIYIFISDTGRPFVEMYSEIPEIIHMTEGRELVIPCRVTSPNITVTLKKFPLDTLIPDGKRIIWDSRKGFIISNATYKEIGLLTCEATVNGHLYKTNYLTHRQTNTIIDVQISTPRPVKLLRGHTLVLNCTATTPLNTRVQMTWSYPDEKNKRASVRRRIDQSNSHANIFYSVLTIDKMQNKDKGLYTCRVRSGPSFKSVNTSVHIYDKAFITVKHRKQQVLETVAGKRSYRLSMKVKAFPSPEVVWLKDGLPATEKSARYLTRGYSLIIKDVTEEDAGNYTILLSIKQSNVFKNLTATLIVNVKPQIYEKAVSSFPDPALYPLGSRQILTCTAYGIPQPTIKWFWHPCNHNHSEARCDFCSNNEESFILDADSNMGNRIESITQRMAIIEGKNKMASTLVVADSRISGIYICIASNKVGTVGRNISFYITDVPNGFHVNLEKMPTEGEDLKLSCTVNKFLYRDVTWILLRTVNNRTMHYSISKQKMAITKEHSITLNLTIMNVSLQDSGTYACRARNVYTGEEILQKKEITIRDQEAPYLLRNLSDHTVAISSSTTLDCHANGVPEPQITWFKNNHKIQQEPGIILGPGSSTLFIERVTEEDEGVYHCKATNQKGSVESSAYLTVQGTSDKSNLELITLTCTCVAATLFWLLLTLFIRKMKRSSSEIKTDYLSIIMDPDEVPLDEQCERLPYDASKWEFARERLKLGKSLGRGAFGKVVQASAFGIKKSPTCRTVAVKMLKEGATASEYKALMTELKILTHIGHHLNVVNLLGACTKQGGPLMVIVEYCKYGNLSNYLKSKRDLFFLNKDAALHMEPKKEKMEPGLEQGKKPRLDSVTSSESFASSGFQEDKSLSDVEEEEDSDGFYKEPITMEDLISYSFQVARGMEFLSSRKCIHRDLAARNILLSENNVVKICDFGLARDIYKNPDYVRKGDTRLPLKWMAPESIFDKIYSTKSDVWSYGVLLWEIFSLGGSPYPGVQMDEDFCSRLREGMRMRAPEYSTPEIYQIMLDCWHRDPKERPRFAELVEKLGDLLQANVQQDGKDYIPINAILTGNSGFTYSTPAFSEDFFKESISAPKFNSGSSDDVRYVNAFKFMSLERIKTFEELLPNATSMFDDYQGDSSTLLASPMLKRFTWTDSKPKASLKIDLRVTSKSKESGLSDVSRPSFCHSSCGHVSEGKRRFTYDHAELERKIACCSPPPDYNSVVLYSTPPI

In assay [1], P1GF (placental growth factor) (ligand) displayed an HUVEC buds containing multiple filopodia of 250%.

As for Jagged1 (ligand), in assay [2], the Hes1 reporter gene activity was 3.7 fold.

Source of the values: patent US20160115217A1.
